Assay results from patent publication US9814672B2, “Echogenic vehicle for clinical delivery of plasminogen activator and other fibrin-binding therapeutics to thrombi” (priority 2007, dated 2017).
Read-outs that look alike come from different tables or passages of the source. Each block holds one substance with its values, some of them ahead of it.

Target: T1, fibrin (Homo sapiens, UniProt P02671+P02675+P02679)
T1 construct: purchased Calbiochem (EMD Biosciences, Inc., La Jolla, Calif.)
T1 sequence (P02671 36-629 limits assumed): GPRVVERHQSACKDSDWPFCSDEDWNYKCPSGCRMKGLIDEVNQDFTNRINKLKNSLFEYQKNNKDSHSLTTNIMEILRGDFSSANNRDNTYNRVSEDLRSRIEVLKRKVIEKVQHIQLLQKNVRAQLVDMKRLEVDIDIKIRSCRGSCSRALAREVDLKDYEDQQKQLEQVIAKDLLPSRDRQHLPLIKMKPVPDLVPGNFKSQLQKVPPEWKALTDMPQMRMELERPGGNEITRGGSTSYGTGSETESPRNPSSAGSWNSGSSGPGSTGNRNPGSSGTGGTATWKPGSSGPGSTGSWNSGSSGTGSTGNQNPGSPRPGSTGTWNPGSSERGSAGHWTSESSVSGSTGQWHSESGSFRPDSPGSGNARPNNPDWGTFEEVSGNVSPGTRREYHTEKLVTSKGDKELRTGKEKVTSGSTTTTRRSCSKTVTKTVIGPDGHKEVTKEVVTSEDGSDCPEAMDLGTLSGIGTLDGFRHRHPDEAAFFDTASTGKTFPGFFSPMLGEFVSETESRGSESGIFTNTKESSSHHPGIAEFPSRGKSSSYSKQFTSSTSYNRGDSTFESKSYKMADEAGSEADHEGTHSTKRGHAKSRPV
T1 sequence (P02675 45-491 limits assumed): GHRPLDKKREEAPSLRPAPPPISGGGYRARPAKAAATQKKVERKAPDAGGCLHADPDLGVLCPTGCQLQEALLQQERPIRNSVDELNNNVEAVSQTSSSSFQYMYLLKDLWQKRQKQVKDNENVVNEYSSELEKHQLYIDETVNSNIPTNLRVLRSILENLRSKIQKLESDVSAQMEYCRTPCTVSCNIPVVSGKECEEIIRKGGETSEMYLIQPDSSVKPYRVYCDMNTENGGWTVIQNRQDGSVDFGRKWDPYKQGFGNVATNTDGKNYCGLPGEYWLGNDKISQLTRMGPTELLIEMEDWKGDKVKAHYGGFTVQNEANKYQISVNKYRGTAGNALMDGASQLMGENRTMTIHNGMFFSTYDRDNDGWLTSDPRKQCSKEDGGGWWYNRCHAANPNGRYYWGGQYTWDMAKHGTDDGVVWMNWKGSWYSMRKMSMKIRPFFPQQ
T1 sequence (P02679 27-437 isoform P02679-2 limits assumed): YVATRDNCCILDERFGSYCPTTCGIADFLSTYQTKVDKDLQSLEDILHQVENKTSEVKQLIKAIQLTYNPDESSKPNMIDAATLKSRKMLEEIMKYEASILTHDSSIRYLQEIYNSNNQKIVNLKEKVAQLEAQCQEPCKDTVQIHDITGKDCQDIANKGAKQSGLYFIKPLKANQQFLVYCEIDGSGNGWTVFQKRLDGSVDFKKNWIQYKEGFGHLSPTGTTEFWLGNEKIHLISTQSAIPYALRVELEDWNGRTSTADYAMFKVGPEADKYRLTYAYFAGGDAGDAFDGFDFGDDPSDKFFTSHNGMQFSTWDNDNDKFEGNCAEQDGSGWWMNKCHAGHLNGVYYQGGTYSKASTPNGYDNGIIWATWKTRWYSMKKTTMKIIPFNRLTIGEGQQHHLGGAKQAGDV
Test: Two-stage fibrin pad ELISA, Scatchard and van't Hoff analysis
Type: binding
Conditions: for ΔH°: van't Hoff plot
Method: Added 100 μl 0.2% BSA/PBS to each well and incubated at 37° C. for 1 hour. All subsequent incubations were also at 37° C. Aspirated the wells and washed the plate 3× with PBS-T. Added Activase dilutions (10, 5, 2.5, 1.25, and 0.625 μg/ml PBS-T) to replicate wells ([…]). Incubated for 2 hours. Removed the contents of each well and pooled all samples within each dilution. Stored pooled samples at 4° C. For tPA-ELIP dilutions (in PBS), the third wash before adding the samples was with PBS. Stored the pooled tPA-ELIP samples in polypropylene tubes.
Added monoclonal anti-tPA capture antibody (Ab) (5 μg/ml coating buffer; […]) to rows B, C, E and G of a fresh microplate. Incubated in a humidified chamber at 4° C. overnight. All subsequent incubations were in humidified chambers at 37° C. at volumes of 50 μl/well, followed by aspiration of wells and 3× washes with PBS-T. Blocked all rows with conjugate buffer for 1 hour. Added tPA standards (50, 25, 12.5, 6.25 and 3.13 ng/ml) and pooled sample dilutions (in PBS-T) in duplicate to sample (B, C, E, G) and background (A, D, F, H) wells. Incubated for 2 hours. Added secondary detection Ab (10 μg sheep anti-tPA/ml 0.1% BSA in PBS-T) to all wells and incubated 1 hour, followed by a conjugate incubation (3,000× diluted with conjugate buffer; 1 hour). Added 50 μl of substrate buffer+500 of substrate (1 tablet/5 ml substrate buffer) to each well. Incubated at 37° for 15 minutes. Immediately quenched with 5 μl of 1M sodium hydroxide/well. Read the plate at 405 nm. Determined net absorbance (A405) by subtracting background OD from sample OD (e.g., B4-A4 or E7-F7).
Calculated the undiluted tPA concentrations of each pooled sample from the standard curve. These represented the free fractions ([F]) of the sample dilutions after equilibrium incubation with fibrin. Obtained the bound concentrations ([B]) by subtracting the free values from the total tPA concentration of the starting dilutions. Prepared Scatchard plots by plotting [B] (x-axis) vs. B/F (y-axis). The slope=−Kassoc and the y-intercept=Kassoc[n], where [n] was the concentration of exposed tPA binding sites on the fibrin pads.
Dilutions of untreated, sham-treated (control) and PPACK-treated (tPA(P)) tPA, as well as tPA(P) conjugated to ELIP (tPA(P)-ELIP), were incubated on replicate fibrin pads, prepared in microplate wells according to a modification of the method of Edgell et al. (1996). Human thrombin was added to a solution of 0.5 mg/ml of human fibrinogen in 0.02M phosphate-buffered saline, pH 7.4 (PBS), to a final concentration of 0.125 IU thrombin/ml; 100 μl of this solution was immediately added to each well and incubated at 37° C. for 45 minutes, followed by overnight drying of the plate at 45° C. After incubation with 100 μl/well of 0.2% BSA in PBS for 1 hour, samples (100 μl/well) were incubated for 2 hours at 37° C. For thermodynamic analyses, this incubation was performed at three temperatures (5, 24 and 37° C.). In order to determine the concentration of free tPA remaining in solution after incubation of tPA with fibrin, from which the concentration of bound tPA could be calculated for Scatchard analysis, the contents of duplicate wells were recovered, pooled and subsequently assayed for immunoreactive tPA in a standard quantitative sandwich ELISA.
Briefly, Nunc MaxiSorp microtiter plates were coated with 5 μg/ml of a monoclonal anti-tPA capture antibody (Ab) in 0.05M sodium bicarbonate, pH 9.6, overnight at 4° C. All incubation volumes were 50 μl/well. One-half of wells were left uncoated for determination of nonspecific binding. After aspirating well contents, all wells were blocked with conjugate buffer (1% BSA in 0.05M Tris buffer, pH 8.0, with 0.02% sodium azide) for 1 hour. From this point, all incubations were at 37° C. Each incubation was followed by aspiration of well contents and washes (3×) with PBS-T (PBS with 0.05% Tween 20). […]

- ΔS° (High affinity): −33.8 cal/mole°
- Kassoc (High affinity, 278 K): 4.67e+09 M⁻¹
- ΔG° (High affinity, 278 K): -12.3 kcal/mol
- Kassoc (High affinity, 297 K): 5.04e+08 M⁻¹
- ΔG° (High affinity, 297 K): -11.8 kcal/mol
- Kassoc (High affinity, 310 K): 7.65e+07 M⁻¹
- ΔG° (High affinity, 310 K): -11.2 kcal/mol
- ΔH° (High affinity): -21.7 kcal/mol
- ΔS° (Low affinity): −9.93 cal/mole°
- Kassoc (Low affinity, 278 K): 5.33e+08 M⁻¹
- ΔG° (Low affinity, 278 K): -11.1 kcal/mol
- Kassoc (Low affinity, 297 K): 1.2e+08 M⁻¹
- ΔG° (Low affinity, 297 K): -11.0 kcal/mol
- Kassoc (Low affinity, 310 K): 3.91e+07 M⁻¹
- ΔG° (Low affinity, 310 K): -10.8 kcal/mol
- ΔH° (Low affinity): -13.9 kcal/mol
- Kd (S.E., n=3, read-out: High-Affinity KD @ 37° C.): 0.0104 ± 0.0014 µM
- Kd (abstract of Example 15, read-out: fibrin-binding KD, higher affinity, after PPACK inactivation): ~0.002 µM
- Kd (abstract of Example 15, read-out: fibrin-binding KD, lower affinity, after PPACK inactivation): 0.033 µM
Substance: tPA(P): Human recombinant tPA (Activase®) irreversibly inhibited with D-phe-L-pro-L-arg-chloromethyl ketone (PPACK)

- other fibrin-binding affinity in the presence of 50 mM EACA (50 mM EACA): non-measurable level
- Kd (50 mM EACA, read-out: remaining fibrin-binding affinity in the presence of 50 mM EACA): 0.0329 µM
- Kd (37° C., SE, n=3, read-out: High-affinity interaction dissociation constant (KD)): 0.00581 ± 0.00404 µM
- Kd (37° C., read-out: Low-affinity interaction KD): 0.0304 ± 0.0147 µM
- Kassoc 1 (Example 12, 37° C.): 3.13e+08 M⁻¹
- Kassoc 2 (Example 12, 37° C.): 3.53e+07 M⁻¹
- Kd (Example 12, 37° C., PBS-T, read-out: higher affinity on Scatchard plot): 0.00319 µM
- Kd (Example 12, 37° C., PBS-T, read-out: lower affinity on Scatchard plot): 0.0283 µM
- High affinity (Scatchard plot) (representative plot, PBS-T, 37° C., r=0.883): 2e+09 M⁻¹
- low affinity (Scatchard plot) (representative plot, PBS-T, 37° C., r=0.904): 1.95e+08 M⁻¹
Substance: tPA: Recombinant tissue-plasminogen activator (Activase®, Genentech Inc.), used as the thrombolytic agent [reference compound]
